Measured values published in the supplement of paper PMC7877785.
± gives the uncertainty stated by the source.

Experiment: self-splicing fitness, log relative to wild type (ln ratio); higher = more splicing; Tetrahymena group I intron in knt gene, E. coli kanamycin selection, DiMSum; sequences stand for … in CUCUCU…GGAGGGAAAAGUUAUCAGGCAUGCACCUGGUAGCUAGUCUUUAAACCAAUAGAUUGCAUCGGUUUAAAAGGCAAGACCGUCAAAUUGCGGGAAAGGGGUCAACAGCCGUUCAGUACCAAGUCUCAGGGGAAACUUUGAGAUGGCCUUGCAAAGGGUAUGGUAAUAAGCUGACGGACAUGGUCCUAACCACGCAGCCAAGUCCUAAGUCAACAGAUCUUCUGUUGAUAUGGAUGCAGUUCACAGACUAAAUGUCGGUCGGGGAAGAUGUAUUCUUCUCAUAAGAUAUAGUCGGACCUCUCCUUAAUGGGAGCUAGCGGAUGAAGUGAUGCAACACUGGAGCCGCUGGGAACUAAUUUGUAUGCGAAAGUAUAUUGAUUAGUUUUGGAGUACUCGUGGUCG
Method in brief: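 The eight P1ex-region nucleotides of an intron in the knt kanamycin-resistance gene on pET-22b(+) were all randomised and the library put into E. coli BL21(DE3). Six replicate transformations were grown overnight at 37°C or 30°C on LB agar with or without 25 μg/mL kanamycin, together with 100 μg/mL carbenicillin, 50 μM IPTG and 0.2% rhamnose. Colonies were pooled and amplicon-sequenced on an Illumina HiSeq 2500. Fitness from DiMSum is the error-weighted combination of wild-type-normalised replicate fold changes, kanamycin over none.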

Sequence	self-splicing fitness (ln) (30 °C)	self-splicing fitness (ln) (37 °C)
ACCGAGCAAUAUUACGAAGG	-2.76 ± 0.17	-2.7 ± 0.28
ACCGAGCAAUAUUACGACGA	-1.16 ± 0.15	-0.75 ± 0.15
ACCGAGCAAUAUUACGAGAG	-3.89 ± 0.28	-2.63 ± 0.18
ACCGAGCAAUAUUACGAGCC	-3.21 ± 0.23	-3.23 ± 0.32
ACCGAGCAAUAUUACGAGUU	-3.25 ± 0.14	-2.87 ± 0.15
ACCGAGCAAUAUUACGAUAG	-3.12 ± 0.21	-2.42 ± 0.24
ACCGAGCAAUAUUACGAUUA	-2.31 ± 0.17	-3.01 ± 0.25
ACCGAGCAAUAUUACGCAAC	-2.01 ± 0.2	-0.42 ± 0.2
ACCGAGCAAUAUUACGCACG	-3.67 ± 0.31	-3.29 ± 0.33
ACCGAGCAAUAUUACGCCAG		-1.35 ± 0.27
ACCGAGCAAUAUUACGCCGU	-3.49 ± 0.3	-1.75 ± 0.2
ACCGAGCAAUAUUACGCGAC		-2.66 ± 0.44
ACCGAGCAAUAUUACGCGUG	-1.41 ± 0.079	-0.71 ± 0.08
ACCGAGCAAUAUUACGCUCA	-1.14 ± 0.13	-0.577 ± 0.2
ACCGAGCAAUAUUACGGCGA	-0.182 ± 0.086	-0.768 ± 0.12
ACCGAGCAAUAUUACGGUGG	-2.91 ± 0.13	-3.14 ± 0.29
ACCGAGCAAUAUUACGUAAU	-3.19 ± 0.12	-1.54 ± 0.13
ACCGAGCAAUAUUACGUACC	-3.88 ± 0.33	-2.37 ± 0.44
ACCGAGCAAUAUUACGUACG	-3.75 ± 0.28	-2.57 ± 0.22
ACCGAGCAAUAUUACGUAGG	-3.76 ± 0.2	-2.79 ± 0.24
ACCGAGCAAUAUUACGUCAC	-3.34 ± 0.27	-2 ± 0.21
ACCGAGCAAUAUUACGUCUA	-3.65 ± 0.28	-2.86 ± 0.17
ACCGAGCAAUAUUACGUGCA	-2.45 ± 0.13	-1.79 ± 0.12
ACCGAGCAAUAUUACGUGGU	-3.77 ± 0.17	-2.05 ± 0.18
ACCGAGCAAUAUUACGUUAC	-4.23 ± 0.22	-2.66 ± 0.18

Sequence	self-splicing fitness (ln) (30 °C)	self-splicing fitness (ln) (37 °C)
ACCUAGCAAUAUUACGAAAG	-2.49 ± 0.11	-2.2 ± 0.13
ACCUAGCAAUAUUACGAAAU	-2.9 ± 0.16	-0.321 ± 0.15
ACCUAGCAAUAUUACGACAA	-0.996 ± 0.14	-0.881 ± 0.16
ACCUAGCAAUAUUACGACGC	-0.289 ± 0.11	0.164 ± 0.12
ACCUAGCAAUAUUACGACUU	-0.837 ± 0.094	0.22 ± 0.1
ACCUAGCAAUAUUACGAUAG	-3.99 ± 0.35	-2.49 ± 0.41
ACCUAGCAAUAUUACGAUCC	-2.35 ± 0.17	-1.15 ± 0.2
ACCUAGCAAUAUUACGCAAU	-2 ± 0.1	-0.798 ± 0.09
ACCUAGCAAUAUUACGCCAG	-1.83 ± 0.22	
ACCUAGCAAUAUUACGCCGG	-0.962 ± 0.13	-0.598 ± 0.17
ACCUAGCAAUAUUACGCCGU	-0.801 ± 0.083	-0.776 ± 0.11
ACCUAGCAAUAUUACGCGAC	-2.55 ± 0.2	-0.855 ± 0.19
ACCUAGCAAUAUUACGCUCC	-1.55 ± 0.14	-0.204 ± 0.12
ACCUAGCAAUAUUACGCUCG	-1.43 ± 0.12	-1.48 ± 0.14
ACCUAGCAAUAUUACGCUGU	-1.54 ± 0.071	-0.737 ± 0.078
ACCUAGCAAUAUUACGGAUG	-2.77 ± 0.11	-1.24 ± 0.09
ACCUAGCAAUAUUACGGCCC	-0.812 ± 0.18	-0.39 ± 0.24
ACCUAGCAAUAUUACGGCUC	-0.922 ± 0.1	-0.468 ± 0.14
ACCUAGCAAUAUUACGUAUA	-1.6 ± 0.1	-1.46 ± 0.12
ACCUAGCAAUAUUACGUGGA	-2.36 ± 0.093	-1.62 ± 0.084
ACCUAGCAAUAUUACGUUGA	-1.98 ± 0.087	-1.54 ± 0.098
ACGAAGCAAUAUUACGAAUG	-1.51 ± 0.11	-2.67 ± 0.18
ACGAAGCAAUAUUACGAGCU	-1.56 ± 0.12	-0.76 ± 0.11
ACGAAGCAAUAUUACGAUCC	-1.12 ± 0.1	-0.136 ± 0.14
